US5952216

What was measured:
Assay in all cases: ELISA on Sf9 extract, absorbance at 405 nm normalized to H16.D9
[1] = target: HPV11 L1 virus-like particles (human papillomavirus type 11) (UniProt P04012)
[2] = target: HPV16 L1 virus-like particles (human papillomavirus type 16) (UniProt P03101)
[3] = target: HPV16:D202E virus-like particles (human papillomavirus type 16) (UniProt P03101)
[4] = target: HPV16:D202H L1 (human papillomavirus type 16) (UniProt P03101)

Substance | normalized ELISA value (normalized with H16.D9) [1] | normalized ELISA value (normalized with H16.D9) [2] | normalized ELISA value (normalized with H16.D9) [3] | normalized ELISA value (normalized with H16.D9) [4]
MAb H16.U4 (antibody) | 0.06 | 0.79 | 0.59 | 0.21
MAb H16.V5 (antibody) | 0.06 | 1.08 | 0.15 | 0.19
